The target of this assay is DNMT1 (Homo sapiens, UniProt P26358). The assay is described as follows: ELISA.
DNMT1, sequence (P26358 whole entry): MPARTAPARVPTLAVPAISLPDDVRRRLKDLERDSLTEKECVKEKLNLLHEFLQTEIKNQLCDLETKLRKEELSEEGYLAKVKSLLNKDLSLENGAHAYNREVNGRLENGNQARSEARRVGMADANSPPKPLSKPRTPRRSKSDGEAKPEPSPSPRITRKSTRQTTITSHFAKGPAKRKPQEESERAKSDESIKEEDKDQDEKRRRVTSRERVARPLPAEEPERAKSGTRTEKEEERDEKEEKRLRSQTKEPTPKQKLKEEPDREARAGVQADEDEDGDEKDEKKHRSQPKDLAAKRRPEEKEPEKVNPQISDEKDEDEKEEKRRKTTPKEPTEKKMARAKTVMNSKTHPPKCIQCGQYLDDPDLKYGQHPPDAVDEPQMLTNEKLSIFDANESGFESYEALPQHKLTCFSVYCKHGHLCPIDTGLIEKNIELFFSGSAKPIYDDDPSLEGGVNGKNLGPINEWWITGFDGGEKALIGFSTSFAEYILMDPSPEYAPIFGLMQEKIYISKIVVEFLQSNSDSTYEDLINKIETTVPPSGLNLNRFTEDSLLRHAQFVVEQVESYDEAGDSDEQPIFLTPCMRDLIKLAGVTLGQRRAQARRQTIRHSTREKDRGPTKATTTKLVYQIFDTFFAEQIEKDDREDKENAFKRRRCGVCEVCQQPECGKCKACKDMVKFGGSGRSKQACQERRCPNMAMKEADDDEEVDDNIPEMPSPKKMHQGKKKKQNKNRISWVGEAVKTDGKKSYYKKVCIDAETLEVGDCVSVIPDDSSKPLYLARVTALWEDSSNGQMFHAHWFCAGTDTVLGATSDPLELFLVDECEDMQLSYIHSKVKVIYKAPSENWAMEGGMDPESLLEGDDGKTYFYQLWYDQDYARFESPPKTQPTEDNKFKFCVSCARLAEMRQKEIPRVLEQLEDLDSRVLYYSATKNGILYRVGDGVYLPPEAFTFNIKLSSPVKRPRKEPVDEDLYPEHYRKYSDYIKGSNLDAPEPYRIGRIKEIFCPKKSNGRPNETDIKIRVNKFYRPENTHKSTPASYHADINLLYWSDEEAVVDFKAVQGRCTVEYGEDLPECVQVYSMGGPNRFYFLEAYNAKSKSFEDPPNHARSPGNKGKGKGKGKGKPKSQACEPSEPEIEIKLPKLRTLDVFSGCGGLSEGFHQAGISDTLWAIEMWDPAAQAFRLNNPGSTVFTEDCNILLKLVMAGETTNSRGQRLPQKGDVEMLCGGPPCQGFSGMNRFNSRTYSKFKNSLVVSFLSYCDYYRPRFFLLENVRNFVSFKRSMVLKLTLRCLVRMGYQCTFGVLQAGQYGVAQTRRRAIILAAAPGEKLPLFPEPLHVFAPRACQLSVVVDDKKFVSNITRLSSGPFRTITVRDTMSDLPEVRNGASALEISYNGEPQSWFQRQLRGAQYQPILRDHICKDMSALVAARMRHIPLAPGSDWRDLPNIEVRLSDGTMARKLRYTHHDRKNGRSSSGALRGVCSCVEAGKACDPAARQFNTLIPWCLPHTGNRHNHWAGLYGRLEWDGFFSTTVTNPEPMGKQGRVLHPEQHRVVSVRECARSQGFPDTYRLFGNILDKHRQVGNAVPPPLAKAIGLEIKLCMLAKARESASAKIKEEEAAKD

B1: CD133 (protein)
chain: GGQPSSTDAPKAWNYELPATNYETQDSHKAGPIGILFELVHIFLYVVQPRDFPEDTLRKFLQKAYESKIDYDKPETVILGLKIVYYEAGIILCCVLGLLFIILMPLVGYFFCMCRCCNKCGGEMHQRQKENGPFLRKCFAISLLVICIIISIGIFYGFVANHQVRTRIKRSRKLADSNFKDLRTLLNETPEQIKYILAQYNTTKDKAFTDLNSINSVLGGGILDRLRPNIIPVLDEIKSMATAIKETKEALENMNSTLKSLHQQSTQLSSSLTSVKTSLRSSLNDPLCLVHPSSETCNSIRLSLSQLNSNPELRQLPPVDAELDNVNNVLRTDLDGLVQQGYQSLNDIPDRVQRQTTTVVAGIKRVLNSIGSDIDNVTQRLPIQDILSAFSVYVNNTESYIHRNLPTLEEYDSYWWLGGLVICSLLTLIVIFYYLGLLCGVCGYDRHATPTTRGCVSNTGGVFLMVGVGLSFLFCWILMIIVVLTFVFGANVEKLICEPYTSKELFRVLDTPYLLNEDWEYYLSGKLFNKSKMKLTFEQVYSDCKKNRGTYGTLHLQNSFNISEHLNINEHTGSISSELESLKVNLNIFLLGAAGRKNLQDFAACGIDRMNYDSYLAQTGKSPAGVNLLSFAYDLEAKANSLPPGNLRNSLKRDAQTIKTIHQQRVLPIEQSLSTLYQSVKILQRTGNGLLERVTRILASLDFAQNFITNNTSSVIIEETKKYGRTIIGYFEHYLQWIEFSISEKVASCKPVATALDTAVDVFLCSYIIDPLNLFWFGIGKATVFLLPALIFAVKLAKYYRRMDSEDVYDDVETIPMKNMENGNNGYHKDHVYGIHNPVMTSPSQH
Molecule B1 displayed a Kd of about 150 nM.

The values are drawn from article PMC9475542 (2022).
